Residue numbers refer to the chain shown, from its start. In names and notes the source's numbering stands. Bridge positions count the residues as written; N and C are the ends. Square brackets hold non-standard residues; d marks the D form. Primed or numbered codes have the meaning given here. Ends that are not written are not given here. 5/6FAM = 5/6-carboxyfluorescein; S5 = C=CCCC[C@](C)(N)C(=O)O; PEG3′ = not defined here
T1: MBP-tagged R1441C RocCOR LRRK2
T1 chain: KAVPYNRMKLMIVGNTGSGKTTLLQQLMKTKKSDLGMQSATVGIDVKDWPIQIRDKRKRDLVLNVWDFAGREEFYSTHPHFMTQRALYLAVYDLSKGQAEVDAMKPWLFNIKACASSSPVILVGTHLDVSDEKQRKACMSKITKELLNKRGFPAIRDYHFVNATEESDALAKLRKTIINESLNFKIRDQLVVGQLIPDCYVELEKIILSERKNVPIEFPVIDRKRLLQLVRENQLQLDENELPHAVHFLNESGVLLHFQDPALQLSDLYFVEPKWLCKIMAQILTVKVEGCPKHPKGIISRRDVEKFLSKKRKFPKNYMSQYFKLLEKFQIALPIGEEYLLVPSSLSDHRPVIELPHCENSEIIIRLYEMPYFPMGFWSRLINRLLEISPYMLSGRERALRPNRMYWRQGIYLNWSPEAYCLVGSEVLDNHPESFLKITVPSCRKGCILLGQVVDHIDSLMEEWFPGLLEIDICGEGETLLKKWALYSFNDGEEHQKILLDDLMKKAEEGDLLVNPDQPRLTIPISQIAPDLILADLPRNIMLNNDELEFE

T2: MBP-tagged RocCOR LRRK2 (wild type)
T2 chain: T1 chain with C114R

B1: FAM ECOR A12G (doubly stapled Elongated COR peptide with A12G) (peptide)
chain: {5/6FAM-PEG3′}-KGEGE[S5]LLK[S5]WGLYSFNDGEKH[S5]KKL[S5]KL
modifications: staple 6-10, 23-27
B2: FAM ECOR (doubly stapled Elongated COR peptide) (peptide)
chain: {FAM-PEG3′}-KGEGE[S5]LLK[S5]WALYSFNDGEKH[S5]KKL[S5]KL
modifications: staple 6-10, 23-27

Key:
[1] = biological target: T1, MBP-tagged R1441C RocCOR LRRK2; test: FP
[2] = biological target: T2, MBP-tagged RocCOR LRRK2 (wild type); test: FP

Row | Binder | Kd [1] [nM] | Kd [2] [nM]
1 | B1 | 32 | 57
2 | B2 | 24 | 45

From paper PMC10251477 (2023)
